Columns and labels:
[1] = target: GST-Shroom3 SD2 R1838C (mouse) (UniProt Q9QXN0); experiment: pull-down; GST-Shroom3 SD2 variants bound to glutathione beads, His-tagged hRock1 SBD soluble; 2 hours at room temperature; washed with NETN; SDS-PAGE, Coomassie Blue
[2] = target: GST-Shroom3 SD2 R1838A (mouse) (UniProt Q9QXN0); experiment: as above

Sequence of UniProt Q9QXN0 (Q9QXN0 1562-1986, stated change not applied): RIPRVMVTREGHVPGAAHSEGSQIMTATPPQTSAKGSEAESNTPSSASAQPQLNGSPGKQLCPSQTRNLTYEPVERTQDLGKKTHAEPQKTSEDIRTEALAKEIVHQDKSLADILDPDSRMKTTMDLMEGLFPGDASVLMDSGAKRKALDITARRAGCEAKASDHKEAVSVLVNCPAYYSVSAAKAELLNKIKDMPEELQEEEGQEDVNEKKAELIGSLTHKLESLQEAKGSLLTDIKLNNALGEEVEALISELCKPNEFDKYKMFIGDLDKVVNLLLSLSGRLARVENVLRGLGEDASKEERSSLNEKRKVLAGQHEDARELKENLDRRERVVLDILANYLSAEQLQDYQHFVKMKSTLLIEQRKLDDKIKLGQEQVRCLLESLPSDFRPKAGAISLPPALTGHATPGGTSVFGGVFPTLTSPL

percent reduction in binding relative to wild type [1]: 95% | percent reduction in binding relative to wild type [2]: 45%
Substance: His-tagged human Rock1 Shroom-Binding domain (SBD), amino acids 707-946 (from UniProt Q13464 707-946) (domain or fragment)

From article PMC4163662
